# Assay results: PMC3192311
# “And” between values parts separate entries of the source, which are not always exact repeats. Identical values can stand only once.
# What was measured:
# [1] = target: LMP-1 TM5 D150A synthetic peptide (Epstein-Barr virus); assay: AUC
# [2] = target: LMP-1 transmembrane helix 1 synthetic peptide (TM1) (Epstein-Barr virus); assay: AUC
# [3] = target: Latent Membrane Protein 1 D150A, full length (Epstein-Barr virus) (UniProt P03230)
# [4] = target: Latent Membrane Protein 1 D150A, full length (Epstein-Barr virus) (UniProt P03230); remark: listed apart in the source
substance,measurement,setting,value
LMP-1 TM5 D150A synthetic peptide,stoichiometry N,[1],2
LMP-1 transmembrane helix 1 synthetic peptide (TM1),stoichiometry N,[2],2 and 4
"Latent Membrane Protein 1 D150A, full length (from UniProt P03230 1-386) (natural protein)","p65 nuclear translocation in HEp2 cells, % of exp + cells with nuc p65 (TR > 1)",[3],38%
same,"NFκB luciferase reporter assay in HEp2 cells, luciferase against empty vector",[4],1.2 times
